From the RNAGym collection of RNA variant scans (doi:10.1021/acssynbio.7b00057)

B1: Pistol ribozyme (parent)
chain: GGGUCGUUGUUCCAUAAUCGCGUGGAUAUGGCACGCAAGUUUCUACCGGGCACCGUAAAUGUCCGACUGGAGCCGUUCGGGCGGCUAUAAACAGACCUCAGGCCCGAAGCGUGGCGGCACCUGCCGCCGGUGGUAAAAAAGAUCGGAAGAGCACACGUCU

Variants of: B1
Assay: aptazyme ON/OFF ratio, guanine; higher = stronger switching; co-transcriptional cleavage with and without guanine

In order of rising “aptazyme ON/OFF ratio” value:
1. GGGUCGCUGUACGAUAAUCGCGUGGAUAUGGCACGCAAGUUUCUACCGGGCACCGUAAAUGUCCGACUGGAGCCGUUCGGGCGGCUAUAAACAGACCUCAGGCCCGAAGCGUGGCGGCACCUGCCGCCGGUGGUAAAAAAGAUCGGAAGAGCACACGUCU [U7C U11A C13G]  1.04
2. GGGUCGCUGUCCGAUAAUCGCGUGGAUAUGGCACGCAAGUUUCUACCGGGCACCGUAAAUGUCCGACUGGAGCCGUUCGGGCGGCUAUAAACAGACCUCAGGCCCGAAGCGUGGCGGCACCUGCCGCCGGUGGUAAAAAAGAUCGGAAGAGCACACGUCU [U7C U11C C13G]  1.05
3. GGGUCGCUGUGUGAUAAUCGCGUGGAUAUGGCACGCAAGUUUCUACCGGGCACCGUAAAUGUCCGACUGGAGCCGUUCGGGCGGCUAUAAACAGACCUCAGGCCCGAAGCGUGGCGGCACCUGCCGCCGGUGGUAAAAAAGAUCGGAAGAGCACACGUCU [U7C U11G C12U C13G]  1.06
4. GGGUCGCUGUCACAUAAUCGCGUGGAUAUGGCACGCAAGUUUCUACCGGGCACCGUAAAUGUCCGACUGGAGCCGUUCGGGCGGCUAUAAACAGACCUCAGGCCCGAAGCGUGGCGGCACCUGCCGCCGGUGGUAAAAAAGAUCGGAAGAGCACACGUCU [U7C U11C C12A]  1.1
5. GGGUCGCUGUGUAAUAAUCGCGUGGAUAUGGCACGCAAGUUUCUACCGGGCACCGUAAAUGUCCGACUGGAGCCGUUCGGGCGGCUAUAAACAGACCUCAGGCCCGAAGCGUGGCGGCACCUGCCGCCGGUGGUAAAAAAGAUCGGAAGAGCACACGUCU [U7C U11G C12U C13A]  1.13
6. GGGUCGCUGUCCUAUAAUCGCGUGGAUAUGGCACGCAAGUUUCUACCGGGCACCGUAAAUGUCCGACUGGAGCCGUUCGGGCGGCUAUAAACAGACCUCAGGCCCGAAGCGUGGCGGCACCUGCCGCCGGUGGUAAAAAAGAUCGGAAGAGCACACGUCU [U7C U11C C13U]  1.13
7. GGGUCGCUGUGGAAUAAUCGCGUGGAUAUGGCACGCAAGUUUCUACCGGGCACCGUAAAUGUCCGACUGGAGCCGUUCGGGCGGCUAUAAACAGACCUCAGGCCCGAAGCGUGGCGGCACCUGCCGCCGGUGGUAAAAAAGAUCGGAAGAGCACACGUCU [U7C U11G C12G C13A]  1.14
8. GGGUCGCUGUCCAAUAAUCGCGUGGAUAUGGCACGCAAGUUUCUACCGGGCACCGUAAAUGUCCGACUGGAGCCGUUCGGGCGGCUAUAAACAGACCUCAGGCCCGAAGCGUGGCGGCACCUGCCGCCGGUGGUAAAAAAGAUCGGAAGAGCACACGUCU [U7C U11C C13A]  1.15
9. GGGUCGCUGUGGUAUAAUCGCGUGGAUAUGGCACGCAAGUUUCUACCGGGCACCGUAAAUGUCCGACUGGAGCCGUUCGGGCGGCUAUAAACAGACCUCAGGCCCGAAGCGUGGCGGCACCUGCCGCCGGUGGUAAAAAAGAUCGGAAGAGCACACGUCU [U7C U11G C12G C13U]  1.15
10. GGGUCGCUGUGAAAUAAUCGCGUGGAUAUGGCACGCAAGUUUCUACCGGGCACCGUAAAUGUCCGACUGGAGCCGUUCGGGCGGCUAUAAACAGACCUCAGGCCCGAAGCGUGGCGGCACCUGCCGCCGGUGGUAAAAAAGAUCGGAAGAGCACACGUCU [U7C U11G C12A C13A]  1.16
11. GGGUCGCUGUAUUAUAAUCGCGUGGAUAUGGCACGCAAGUUUCUACCGGGCACCGUAAAUGUCCGACUGGAGCCGUUCGGGCGGCUAUAAACAGACCUCAGGCCCGAAGCGUGGCGGCACCUGCCGCCGGUGGUAAAAAAGAUCGGAAGAGCACACGUCU [U7C U11A C12U C13U]  1.16
12. GGGUCGCUGUCCCAUAAUCGCGUGGAUAUGGCACGCAAGUUUCUACCGGGCACCGUAAAUGUCCGACUGGAGCCGUUCGGGCGGCUAUAAACAGACCUCAGGCCCGAAGCGUGGCGGCACCUGCCGCCGGUGGUAAAAAAGAUCGGAAGAGCACACGUCU [U7C U11C]  1.16
13. GGGUCGCUGUGAGAUAAUCGCGUGGAUAUGGCACGCAAGUUUCUACCGGGCACCGUAAAUGUCCGACUGGAGCCGUUCGGGCGGCUAUAAACAGACCUCAGGCCCGAAGCGUGGCGGCACCUGCCGCCGGUGGUAAAAAAGAUCGGAAGAGCACACGUCU [U7C U11G C12A C13G]  1.17
14. GGGUCGCUGUGAUAUAAUCGCGUGGAUAUGGCACGCAAGUUUCUACCGGGCACCGUAAAUGUCCGACUGGAGCCGUUCGGGCGGCUAUAAACAGACCUCAGGCCCGAAGCGUGGCGGCACCUGCCGCCGGUGGUAAAAAAGAUCGGAAGAGCACACGUCU [U7C U11G C12A C13U]  1.17
15. GGGUCGCUGUAUGAUAAUCGCGUGGAUAUGGCACGCAAGUUUCUACCGGGCACCGUAAAUGUCCGACUGGAGCCGUUCGGGCGGCUAUAAACAGACCUCAGGCCCGAAGCGUGGCGGCACCUGCCGCCGGUGGUAAAAAAGAUCGGAAGAGCACACGUCU [U7C U11A C12U C13G]  1.17
16. GGGUCGCUGUAUAAUAAUCGCGUGGAUAUGGCACGCAAGUUUCUACCGGGCACCGUAAAUGUCCGACUGGAGCCGUUCGGGCGGCUAUAAACAGACCUCAGGCCCGAAGCGUGGCGGCACCUGCCGCCGGUGGUAAAAAAGAUCGGAAGAGCACACGUCU [U7C U11A C12U C13A]  1.18
17. GGGUCGCUGUGACAUAAUCGCGUGGAUAUGGCACGCAAGUUUCUACCGGGCACCGUAAAUGUCCGACUGGAGCCGUUCGGGCGGCUAUAAACAGACCUCAGGCCCGAAGCGUGGCGGCACCUGCCGCCGGUGGUAAAAAAGAUCGGAAGAGCACACGUCU [U7C U11G C12A]  1.18
18. GGGUCGCUGUAUCAUAAUCGCGUGGAUAUGGCACGCAAGUUUCUACCGGGCACCGUAAAUGUCCGACUGGAGCCGUUCGGGCGGCUAUAAACAGACCUCAGGCCCGAAGCGUGGCGGCACCUGCCGCCGGUGGUAAAAAAGAUCGGAAGAGCACACGUCU [U7C U11A C12U]  1.18
19. GGGUCGCUGUGUUAUAAUCGCGUGGAUAUGGCACGCAAGUUUCUACCGGGCACCGUAAAUGUCCGACUGGAGCCGUUCGGGCGGCUAUAAACAGACCUCAGGCCCGAAGCGUGGCGGCACCUGCCGCCGGUGGUAAAAAAGAUCGGAAGAGCACACGUCU [U7C U11G C12U C13U]  1.2
20. GGGUCGCUGUGCCAUAAUCGCGUGGAUAUGGCACGCAAGUUUCUACCGGGCACCGUAAAUGUCCGACUGGAGCCGUUCGGGCGGCUAUAAACAGACCUCAGGCCCGAAGCGUGGCGGCACCUGCCGCCGGUGGUAAAAAAGAUCGGAAGAGCACACGUCU [U7C U11G]  1.2
21. GGGUCGCUGUCGAAUAAUCGCGUGGAUAUGGCACGCAAGUUUCUACCGGGCACCGUAAAUGUCCGACUGGAGCCGUUCGGGCGGCUAUAAACAGACCUCAGGCCCGAAGCGUGGCGGCACCUGCCGCCGGUGGUAAAAAAGAUCGGAAGAGCACACGUCU [U7C U11C C12G C13A]  1.21
22. GGGUCGCUGUACAAUAAUCGCGUGGAUAUGGCACGCAAGUUUCUACCGGGCACCGUAAAUGUCCGACUGGAGCCGUUCGGGCGGCUAUAAACAGACCUCAGGCCCGAAGCGUGGCGGCACCUGCCGCCGGUGGUAAAAAAGAUCGGAAGAGCACACGUCU [U7C U11A C13A]  1.21
23. GGGUCGCUGUCGUAUAAUCGCGUGGAUAUGGCACGCAAGUUUCUACCGGGCACCGUAAAUGUCCGACUGGAGCCGUUCGGGCGGCUAUAAACAGACCUCAGGCCCGAAGCGUGGCGGCACCUGCCGCCGGUGGUAAAAAAGAUCGGAAGAGCACACGUCU [U7C U11C C12G C13U]  1.22
24. GGGUCGCUGUCUGAUAAUCGCGUGGAUAUGGCACGCAAGUUUCUACCGGGCACCGUAAAUGUCCGACUGGAGCCGUUCGGGCGGCUAUAAACAGACCUCAGGCCCGAAGCGUGGCGGCACCUGCCGCCGGUGGUAAAAAAGAUCGGAAGAGCACACGUCU [U7C U11C C12U C13G]  1.22
25. GGGUCGCUGUACUAUAAUCGCGUGGAUAUGGCACGCAAGUUUCUACCGGGCACCGUAAAUGUCCGACUGGAGCCGUUCGGGCGGCUAUAAACAGACCUCAGGCCCGAAGCGUGGCGGCACCUGCCGCCGGUGGUAAAAAAGAUCGGAAGAGCACACGUCU [U7C U11A C13U]  1.23
26. GGGUCGCUGUCAUAUAAUCGCGUGGAUAUGGCACGCAAGUUUCUACCGGGCACCGUAAAUGUCCGACUGGAGCCGUUCGGGCGGCUAUAAACAGACCUCAGGCCCGAAGCGUGGCGGCACCUGCCGCCGGUGGUAAAAAAGAUCGGAAGAGCACACGUCU [U7C U11C C12A C13U]  1.25
27. GGGUCGCUGUGUCAUAAUCGCGUGGAUAUGGCACGCAAGUUUCUACCGGGCACCGUAAAUGUCCGACUGGAGCCGUUCGGGCGGCUAUAAACAGACCUCAGGCCCGAAGCGUGGCGGCACCUGCCGCCGGUGGUAAAAAAGAUCGGAAGAGCACACGUCU [U7C U11G C12U]  1.26
28. GGGUCGCUGUCAAAUAAUCGCGUGGAUAUGGCACGCAAGUUUCUACCGGGCACCGUAAAUGUCCGACUGGAGCCGUUCGGGCGGCUAUAAACAGACCUCAGGCCCGAAGCGUGGCGGCACCUGCCGCCGGUGGUAAAAAAGAUCGGAAGAGCACACGUCU [U7C U11C C12A C13A]  1.27
29. GGGUCGCUGUGGGAUAAUCGCGUGGAUAUGGCACGCAAGUUUCUACCGGGCACCGUAAAUGUCCGACUGGAGCCGUUCGGGCGGCUAUAAACAGACCUCAGGCCCGAAGCGUGGCGGCACCUGCCGCCGGUGGUAAAAAAGAUCGGAAGAGCACACGUCU [U7C U11G C12G C13G]  1.27
30. GGGUCGCUGUCAGAUAAUCGCGUGGAUAUGGCACGCAAGUUUCUACCGGGCACCGUAAAUGUCCGACUGGAGCCGUUCGGGCGGCUAUAAACAGACCUCAGGCCCGAAGCGUGGCGGCACCUGCCGCCGGUGGUAAAAAAGAUCGGAAGAGCACACGUCU [U7C U11C C12A C13G]  1.28
31. GGGUCGCUGUCGGAUAAUCGCGUGGAUAUGGCACGCAAGUUUCUACCGGGCACCGUAAAUGUCCGACUGGAGCCGUUCGGGCGGCUAUAAACAGACCUCAGGCCCGAAGCGUGGCGGCACCUGCCGCCGGUGGUAAAAAAGAUCGGAAGAGCACACGUCU [U7C U11C C12G C13G]  1.29
32. GGGUCGCUGUCUUAUAAUCGCGUGGAUAUGGCACGCAAGUUUCUACCGGGCACCGUAAAUGUCCGACUGGAGCCGUUCGGGCGGCUAUAAACAGACCUCAGGCCCGAAGCGUGGCGGCACCUGCCGCCGGUGGUAAAAAAGAUCGGAAGAGCACACGUCU [U7C U11C C12U C13U]  1.29
33. GGGUCGCUGUGGCAUAAUCGCGUGGAUAUGGCACGCAAGUUUCUACCGGGCACCGUAAAUGUCCGACUGGAGCCGUUCGGGCGGCUAUAAACAGACCUCAGGCCCGAAGCGUGGCGGCACCUGCCGCCGGUGGUAAAAAAGAUCGGAAGAGCACACGUCU [U7C U11G C12G]  1.31
34. GGGUCGCUGUCGCAUAAUCGCGUGGAUAUGGCACGCAAGUUUCUACCGGGCACCGUAAAUGUCCGACUGGAGCCGUUCGGGCGGCUAUAAACAGACCUCAGGCCCGAAGCGUGGCGGCACCUGCCGCCGGUGGUAAAAAAGAUCGGAAGAGCACACGUCU [U7C U11C C12G]  1.35
35. GGGUCGCUGUCUAAUAAUCGCGUGGAUAUGGCACGCAAGUUUCUACCGGGCACCGUAAAUGUCCGACUGGAGCCGUUCGGGCGGCUAUAAACAGACCUCAGGCCCGAAGCGUGGCGGCACCUGCCGCCGGUGGUAAAAAAGAUCGGAAGAGCACACGUCU [U7C U11C C12U C13A]  1.39
36. GGGUCGCUGUCUCAUAAUCGCGUGGAUAUGGCACGCAAGUUUCUACCGGGCACCGUAAAUGUCCGACUGGAGCCGUUCGGGCGGCUAUAAACAGACCUCAGGCCCGAAGCGUGGCGGCACCUGCCGCCGGUGGUAAAAAAGAUCGGAAGAGCACACGUCU [U7C U11C C12U]  1.5
